Assays:
[1] = target: T1, human TNFR2 expressed on cells (human, UniProt P20333 23-461); experiment: cell-based or functional assay
T1 sequence (looked up): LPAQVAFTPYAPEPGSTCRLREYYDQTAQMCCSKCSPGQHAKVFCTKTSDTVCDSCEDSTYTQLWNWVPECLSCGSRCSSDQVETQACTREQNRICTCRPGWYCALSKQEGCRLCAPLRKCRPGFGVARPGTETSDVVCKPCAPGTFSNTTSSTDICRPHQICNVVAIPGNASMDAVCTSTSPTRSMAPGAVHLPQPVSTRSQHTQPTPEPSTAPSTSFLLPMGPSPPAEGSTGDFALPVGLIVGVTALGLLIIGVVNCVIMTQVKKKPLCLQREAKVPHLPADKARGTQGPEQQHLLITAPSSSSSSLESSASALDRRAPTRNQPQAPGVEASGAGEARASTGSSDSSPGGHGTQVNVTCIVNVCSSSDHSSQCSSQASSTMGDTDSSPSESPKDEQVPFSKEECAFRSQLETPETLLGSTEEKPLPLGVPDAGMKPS

[2] = target: T2, cynomolgus TNFR2-His tagged protein (cynomolgus, UniProt A0A2K5VET2 132-366); experiment: ELISA, cynomolgus TNFR2
T2 construct: also called Cyno TNFR2; cynomolgus TNFR2 protein; not shown: His tag
T2 sequence: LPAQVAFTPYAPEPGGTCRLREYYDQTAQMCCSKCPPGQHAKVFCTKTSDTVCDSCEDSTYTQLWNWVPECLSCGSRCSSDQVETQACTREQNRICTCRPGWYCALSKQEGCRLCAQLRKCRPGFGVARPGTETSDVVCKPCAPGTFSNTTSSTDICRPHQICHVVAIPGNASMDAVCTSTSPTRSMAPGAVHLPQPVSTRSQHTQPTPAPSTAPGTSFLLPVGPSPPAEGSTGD

[3] = target: T3, human TNFR2-His tagged protein (soluble) (human, UniProt P20333 23-257); experiment: ELISA, soluble human TNFR2
T3 construct: also called hTNFR2 (soluble); soluble TNFR2-His; not shown: His tag
T3 sequence (looked up): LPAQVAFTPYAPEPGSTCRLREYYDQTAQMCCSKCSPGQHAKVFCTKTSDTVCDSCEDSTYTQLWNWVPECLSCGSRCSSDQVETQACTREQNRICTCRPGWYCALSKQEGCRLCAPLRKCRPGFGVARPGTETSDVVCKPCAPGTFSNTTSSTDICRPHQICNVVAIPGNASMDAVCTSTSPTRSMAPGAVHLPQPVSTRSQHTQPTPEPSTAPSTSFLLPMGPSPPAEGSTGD

[4] = target: T4, TNFR2 (as used in the Octet measurement) (UniProt P20333 23-257, limits assumed); experiment: Octet (BLI), monovalent binding
T4 construct: Probably human soluble TNFR2; the legend says only TNFR2
T4 sequence (looked up): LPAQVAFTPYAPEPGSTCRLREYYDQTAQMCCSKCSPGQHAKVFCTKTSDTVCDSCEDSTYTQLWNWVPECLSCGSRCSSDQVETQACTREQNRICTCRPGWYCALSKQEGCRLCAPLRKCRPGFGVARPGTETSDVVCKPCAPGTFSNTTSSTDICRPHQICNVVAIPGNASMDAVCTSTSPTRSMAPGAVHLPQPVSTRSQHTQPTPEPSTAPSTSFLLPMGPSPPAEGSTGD

TNFR-Fc = target: T5, TNFR-Fc (UniProt P20333 23-257, limits assumed); experiment: TNF-α blocking ELISA (soluble)
T5 construct: Printed only as TNFR-Fc; not shown: Fc part
T5 sequence (looked up): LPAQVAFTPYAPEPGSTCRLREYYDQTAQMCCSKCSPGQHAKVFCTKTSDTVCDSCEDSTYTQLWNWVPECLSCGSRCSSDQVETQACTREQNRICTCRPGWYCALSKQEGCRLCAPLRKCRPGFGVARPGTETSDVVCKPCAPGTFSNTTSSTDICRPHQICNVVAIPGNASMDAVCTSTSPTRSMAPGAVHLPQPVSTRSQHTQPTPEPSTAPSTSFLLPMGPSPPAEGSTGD

death receptor 6 (DR6) = target: T6, death receptor 6 (DR6) (UniProt O75509 42-349, limits assumed); experiment: ELISA on coated DR6, OD 650 nm
T6 sequence (looked up): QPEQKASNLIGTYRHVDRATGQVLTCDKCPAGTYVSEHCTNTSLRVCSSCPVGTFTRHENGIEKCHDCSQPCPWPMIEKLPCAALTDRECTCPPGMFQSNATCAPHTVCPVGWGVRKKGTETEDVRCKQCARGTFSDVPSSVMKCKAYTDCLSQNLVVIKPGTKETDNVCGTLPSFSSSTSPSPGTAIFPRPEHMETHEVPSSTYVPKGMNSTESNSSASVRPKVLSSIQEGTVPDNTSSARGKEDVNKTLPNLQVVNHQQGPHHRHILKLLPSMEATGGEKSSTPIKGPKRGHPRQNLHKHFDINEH
Procedure: (§1) To test binding to TNFR family members, target proteins were coated on ELISA plates at 1 μg/mL at 4° C. overnight. Plates were washed, blocked, and antibodies were added at indicated concentrations for 1 hour at RT. Positive control antibodies for each protein were used at ˜1 ug/mL. Antibodies were washed and detected with anti-human IgG HRP for 1 hour. Assay was developed using TMB substrate for 10 minutes. For cell-binding, human CD4+ T cells purified from buffy coats were cultured in flat-bottom plates with anti-CD3/CD28 for 24 hours. Cells were harvested and stained for viability, CD4, CD25 and FOXP3. Test antibody staining was detected using anti-human IgG APC. Binding titration of test antibodies was evaluated on CD4+CD25hiFOXP3+ regulatory T cells and plotted as percent binding.

osteoprotegerin (OPG) = target: T7, osteoprotegerin (OPG) (UniProt O00300 22-401, limits assumed); experiment: ELISA on coated OPG, OD 650 nm
T7 sequence (looked up): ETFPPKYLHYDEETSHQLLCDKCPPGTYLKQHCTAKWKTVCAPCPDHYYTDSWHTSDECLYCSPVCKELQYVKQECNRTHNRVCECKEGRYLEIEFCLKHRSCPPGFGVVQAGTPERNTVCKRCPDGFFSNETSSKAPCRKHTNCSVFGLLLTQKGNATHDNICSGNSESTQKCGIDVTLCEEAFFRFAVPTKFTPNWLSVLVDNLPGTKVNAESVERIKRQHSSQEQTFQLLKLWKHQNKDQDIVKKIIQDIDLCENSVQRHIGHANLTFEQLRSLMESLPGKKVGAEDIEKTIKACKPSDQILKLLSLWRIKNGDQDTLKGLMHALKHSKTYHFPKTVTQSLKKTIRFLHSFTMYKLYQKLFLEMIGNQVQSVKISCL
Procedure: as §1

[5] = target: T8, herpesvirus entry mediator (HVEM) (UniProt Q92956 39-202, limits assumed); experiment: ELISA on coated HVEM, OD 650 nm
T8 sequence (looked up): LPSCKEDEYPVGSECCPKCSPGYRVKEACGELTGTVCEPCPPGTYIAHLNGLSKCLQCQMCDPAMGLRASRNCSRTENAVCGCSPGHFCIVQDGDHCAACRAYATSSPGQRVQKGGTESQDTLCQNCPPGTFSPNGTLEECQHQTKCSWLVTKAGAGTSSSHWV
Procedure: as §1

CD40 = CD40 (UniProt P25942 21-193, limits assumed); experiment: ELISA on coated CD40, OD 650 nm
Sequence of CD40 (P25942 21-193 limits assumed): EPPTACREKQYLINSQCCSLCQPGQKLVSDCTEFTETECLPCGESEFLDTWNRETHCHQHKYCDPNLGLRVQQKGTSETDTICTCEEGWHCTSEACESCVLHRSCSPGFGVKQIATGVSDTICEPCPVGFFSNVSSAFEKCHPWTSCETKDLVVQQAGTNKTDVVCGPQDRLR
Procedure: as §1

[6] = target: T9, human TNFR1-His tagged protein (human, UniProt P19438 30-211, limits assumed); experiment: ELISA on coated TNFR1, OD 450 nm
T9 construct: also called soluble human TNFR1; not shown: His tag
T9 sequence (looked up): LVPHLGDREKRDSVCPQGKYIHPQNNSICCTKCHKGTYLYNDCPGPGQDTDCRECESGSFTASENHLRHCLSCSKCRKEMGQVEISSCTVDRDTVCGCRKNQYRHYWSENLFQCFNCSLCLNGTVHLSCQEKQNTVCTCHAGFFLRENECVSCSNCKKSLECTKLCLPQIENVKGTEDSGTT
Procedure: as §1

[7] = target: T1, human TNFR2 expressed on cells; experiment: flow cytometry, cell-expressed human TNFR2
[8] = target: T3, human TNFR2-His tagged protein (soluble); experiment: ELISA on coated hTNFR2-His, OD 450 nm
[9] = target: T1, human TNFR2 expressed on cells; experiment: cell binding on TNFR2-overexpressing (OE) cells
[10] = target: T1, human TNFR2 expressed on cells; experiment: blocking of biotinylated TNF-α on TNFR2-CHO cells, flow cytometry
Procedure: TNFR2-overexpressing CHO cells were plated at 100,000 cells per well. Cells were incubated with the indicated antibodies for 30 minutes on ice. […] Cells were analyzed using Cytoflex or MACSQuant flow cytometer. Assay was repeated twice.

[11] = target: T1, human TNFR2 expressed on cells; experiment: flow cytometry on cells expressing human TNFR2, MFI median
[12] = target: T1, human TNFR2 expressed on cells; experiment: Primary Cell Affinity; binding titration on activated human Tregs, flow cytometry
Procedure: as §1

ADCC EC50 (reporter line) [1]: 1.14 nM | ADCP EC50 [1]: 0.92 nM | EC50 [2]: 0.046 nM | EC50 [3]: 0.105 nM | koff [4]: 0.000233 s⁻¹ | kon [4]: 376000 M⁻¹ s⁻¹ | IC50 (TNFR-Fc): 1.33 nM | binding result (osteoprotegerin (OPG)): no binding (tested: about 67 nM) | binding result [5]: no binding (tested: about 67 nM) | binding result (CD40): no binding (tested: about 67 nM) | binding result [6]: no binding (tested: about 67 nM) | EC50 [7]: 0.31 nM | EC50 (read off the curve) [8]: ~0.1 nM | Kd [9]: 0.0994 nM | IC50 [10]: 0.198 nM | EC50 (read off the curve) [11]: ~0.3 nM | Kd [12]: 0.05 nM
B1: humanized antibody h600-25-108 (antibody, V domains shown)
VH: EVQLVESGGGLVQPGGSLRLSCAASGFSLSDYFMTWVRQAPGKGLEWVGIINTGGDSYYATWAKGRFTISRDNSKNTLYLQMNSLRAEDTAVYYCARDTGYGGYDYAGSFDPWGQGTLVTVSS
VL: DIQMTQSPSSVSASVGDRVTITCQASENINSWLAWYQQKPGKAPKLLIYEASKLASGVPSRFSGSGSGTDFTLTISSLQPEDFATYYCQQGYIYIDVGNIFGGGTKVEIK
binding result (death receptor 6 (DR6)): no binding (tested: about 67 nM)

From US20220372154A1 (APEXIGEN, published 2022)
